25 molecules from US20250215104A1 (WALDEN BIOSCIENCES, published 2025) can be followed below.

First the molecules themselves.
B1: suPAR_DB03_C08 (scFv, V domains shown)
VH: QVQLVQSGAEVKKPGASVKVSCKASGGTFTNYYMHWVRQAPGQGLEWMGWIDHENGSTIYAQKFQGRVTMTRDTSTSTVYMELSSLRSEDTAVYYCARGYDVDWFVYWGQGTLVTVSS
VL: DIQMTQSPSSLSASVGDRVTITCSARSSVSYMYWYQQKPGKAPKLLIYRTSSLASGVPSRFSGSGSGTDFTLTISSLQPEDFATYYCQQYHSYPPTFGGGTKVEIK
notes: screened as scFv
B2: suPAR_DB03_E09 (scFv, V domains shown)
VH: QVQLVQSGAEVKKPGASVKVSCKASGFNIKDYYIHWVRQAPGQGLEWMGWIDPNSGGTNYAQKFQGRVTMTRDTSTSTVYMELSSLRSEDTAVYYCARGYDVDWFVYWGQGTLVTVSS
VL: B1 VL with S24R, S27Q, S52N
notes: screened as scFv
B3: suPAR_DB03_D07 (scFv, V domains shown)
VH: B1 VH with G27N, M34V, H53P, E54S, S57N, A61D
VL: B1 VL with S52N
notes: screened as scFv
B4: suPAR_DB03_E03 (scFv, V domains shown)
VH: B1 VH with G27Y, F29V, S57N, A61D
VL: B1 VL with S24R, S52N
notes: screened as scFv
B5: suPAR_DB03_C09 (scFv, V domains shown)
VH: B1 VH with G27Y, N31S, A61D
VL: B1 VL with S27Q, S52N
notes: screened as scFv
B6: suPAR_DB03_D04 (scFv, V domains shown)
VH: B1 VH with G27Y, H53P, A61D
VL: B1 VL with S52N, Y90S
notes: screened as scFv
B7: suPAR_DB03_E02 (scFv, V domains shown)
VH: B1 VH with G27Y, T28N, N31G, M34I, S57N
VL: B1 VL with S52N
notes: screened as scFv
B8: suPAR_DB03_D06 (scFv, V domains shown)
VH: B1 VH with G27Y, T28S, S57N, I59S
VL: B1 VL with S52N
notes: screened as scFv
B9: suPAR_DB03_D10 (scFv, V domains shown)
VH: B1 VH with G27Y, N31S, H53P, S57N
VL: B1 VL with S52N, A54Q
notes: screened as scFv
B10: suPAR_DB03_D01 (scFv, V domains shown)
VH: B2 VH with I51M
VL: B1 VL with S52N
notes: screened as scFv
B11: suPAR_DB03_E06 (scFv, V domains shown)
VH: B1 VH with G27Y, N31G, Y32Q, M34V, S57N, A61D
VL: B1 VL with S52N
notes: screened as scFv
B12: suPAR_DB03_D09 (scFv, V domains shown)
VH: B1 VH with G27Y, N31G
VL: B1 VL with S52N, A54Q
notes: screened as scFv
B13: suPAR_DB03_D05 (scFv, V domains shown)
VH: B1 VH with G27D, T28N, N31T, H53P, S57N
VL: B1 VL with S52N
notes: screened as scFv
B14: suPAR_DB03_D08 (scFv, V domains shown)
VH: B1 VH with G27Y, N31G, H53P, A61D
VL: B1 VL with S27Q, S52N
notes: screened as scFv
B15: suPAR_DB03_C10 (scFv, V domains shown)
VH: B1 VH with G27Y, N31S, N55G, R98S
VL: B1 VL with S52N
notes: screened as scFv
B16: suPAR_DB03_E08 (scFv, V domains shown)
VH: B1 VH with G27Y, N31H, H53P, N55G, A61D
VL: B1 VL with S24R, R26S, S52N
notes: screened as scFv
B17: suPAR_DB03_C12 (scFv, V domains shown)
VH: B1 VH with G27N, S57N, I59S, A61D
VL: B1 VL with S52N
notes: screened as scFv
B18: suPAR_DB03_D12 (scFv, V domains shown)
VH: B1 VH with G27Y, T30S, H53P, S57N
VL: B1 VL with S24R, S52N, A54Q
notes: screened as scFv
B19: suPAR_DB03_D02 (scFv, V domains shown)
VH: B1 VH with G27Y, N31R, M34L, H53P, S57N
VL: B1 VL with S52N
notes: screened as scFv
B20: suPAR_DB03_D03 (scFv, V domains shown)
VH: B1 VH with G27Y, N31G, M34I, H53P, S57N
VL: B1 VL with S24R, S27Q, S52N
notes: screened as scFv
B21: suPAR_DB03_E04 (scFv, V domains shown)
VH: B1 VH with G27Y, N31G, Y32H, H53P, A61D
VL: B1 VL with S52N
notes: screened as scFv
B22: suPAR_DB04_D09 (scFv, V domains shown)
VH: B1 VH with G27Y, N31A, S57N, A61D
VL: B1 VL with S52N
notes: scFv clone from phage display
B23: suPAR_DB04_C04 (scFv, V domains shown)
VH: B1 VH with G27Y, N31G, S57N, I59S, A61D
VL: B1 VL with R26S, S27Q, S52N
notes: scFv clone from phage display
B24: suPAR_DB04_C02 (scFv, V domains shown)
VH: B1 VH with G27N, T30I, N31G, M34V, S57N, I59S, A61D, Y100N
VL: B1 VL with S52N
notes: scFv clone from phage display
B25: suPAR_DB04_C03 (scFv, V domains shown)
VH: B1 VH with G27Y, N31S, H53P, A61D, R98S
VL: B1 VL with S52N
notes: scFv clone from phage display

Positions count from the first letter of the chain named.

The target in the first test is T1, cynomolgus suPAR (cynomolgus, UniProt Q9GK78 23-303, limits assumed).
T1 construct: Target antigen of the off-rate screen; also called cynomolgus uPAR; cynoPLAUR-His
T1 sequence (Q9GK78 23-303 limits assumed): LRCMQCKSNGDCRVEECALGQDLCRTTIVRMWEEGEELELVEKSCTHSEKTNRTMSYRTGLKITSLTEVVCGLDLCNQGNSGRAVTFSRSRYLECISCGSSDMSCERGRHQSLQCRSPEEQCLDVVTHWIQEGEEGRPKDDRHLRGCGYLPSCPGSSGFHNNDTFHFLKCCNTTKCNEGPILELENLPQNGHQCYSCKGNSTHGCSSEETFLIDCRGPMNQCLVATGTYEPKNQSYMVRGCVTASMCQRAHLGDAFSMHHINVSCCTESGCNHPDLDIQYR
Briefly: BLI (Octet) off-rate screen of scFv clones. In general terms: Biolayer interferometry detects binding as a change in optical thickness at a sensor tip.
In general, koff refers to the rate constant with which the complex falls apart. Low values mean slow dissociation, high ones fast dissociation. As for B1, the koff worked out at 9.98e-05 s⁻¹.
The same measure, in the same setting: under B2 stands 0.000132 s⁻¹.
B3 registered a koff of 0.000163 s⁻¹.
Still for that read-out and setting: under B4 stands 0.000132 s⁻¹; under B5, 3.75e-07 s⁻¹; under B6, 0.0059 s⁻¹.
On to B7, for which the koff is 0.000258 s⁻¹.
Still for that read-out and setting: the result for B8 reads 0.000388 s⁻¹; that for B9, 0.000286 s⁻¹; that for B10, 8.49e-05 s⁻¹.
Still for that read-out and setting: under B11 stands 7.36e-05 s⁻¹.
Still for that read-out and setting: the result for B12 reads 0.000508 s⁻¹.
Take B13: the koff was found to be 3.55e-05 s⁻¹.
In turn, B14 had a koff of 0.000482 s⁻¹.
The molecule B15 yielded a koff of 0.000301 s⁻¹.
The molecule B16 returned a koff of 0.00025 s⁻¹. The koff values of the last two molecules are within 1.5-fold of each other.
With B17, the koff is 7.59e-05 s⁻¹. This koff is about 3.3-fold lower than that of the molecule before.
Same read-out and setting: the result for B18 reads 0.000263 s⁻¹.
Turning to B19, the koff came out at 0.000241 s⁻¹. The koff values of the last two molecules are within 1.5-fold of each other.
The same measure, in the same setting: under B20 stands 0.000156 s⁻¹.
The same measure, in the same setting: the result for B21 reads 0.000669 s⁻¹.

A further test deals with T2, human soluble urokinase plasminogen activator receptor (hsuPAR) (human, UniProt Q03405 23-303, limits assumed).
T2 construct: Target antigen of the off-rate screen; also called human suPAR; rhuPAR-His
Briefly: BLI (Octet) off-rate screen of scFv clones.
T2 sequence (Q03405 23-303 limits assumed): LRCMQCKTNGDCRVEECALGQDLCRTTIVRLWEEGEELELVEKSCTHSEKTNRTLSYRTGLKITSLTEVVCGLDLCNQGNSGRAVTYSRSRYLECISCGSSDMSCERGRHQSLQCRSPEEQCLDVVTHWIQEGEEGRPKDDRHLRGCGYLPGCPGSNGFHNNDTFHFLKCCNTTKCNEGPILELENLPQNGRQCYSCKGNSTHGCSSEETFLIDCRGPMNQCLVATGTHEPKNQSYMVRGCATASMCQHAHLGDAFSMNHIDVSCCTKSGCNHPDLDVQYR
B1 registered a koff of 0.00103 s⁻¹.
B2 registered a koff of 0.00426 s⁻¹.
The same measure, in the same setting: under B3 stands 0.00308 s⁻¹; under B4, 0.00231 s⁻¹; under B5, 0.00103 s⁻¹.
B6 had a koff of 0.00325 s⁻¹.
In turn, B7 had a koff of 0.00358 s⁻¹.
In turn, B8 had a koff of 0.00295 s⁻¹.
On the same count and under the same terms, under B9 stands 0.00527 s⁻¹; under B10, 0.00416 s⁻¹; under B11, 0.0044 s⁻¹.
In turn, B12 gave a koff of 0.000746 s⁻¹.
As to B13, the koff was 0.00482 s⁻¹.
As for B14, the koff came out at 0.00458 s⁻¹.
The same measure, in the same setting: under B15 stands 0.00452 s⁻¹.
B16 returned a koff of 0.005 s⁻¹.
In the case of B17, the koff is 0.00396 s⁻¹.
Same read-out and setting: the result for B18 reads 0.0057 s⁻¹; that for B19, 0.00755 s⁻¹.
As to B20, the koff is 0.00258 s⁻¹.
Still for that read-out and setting: the result for B21 reads 0.00556 s⁻¹.

The target in a further test is T3, cynomolgus soluble urokinase plasminogen activator receptor (cynomolgus suPAR) (cynomolgus, UniProt Q9GK78 23-303, limits assumed).
T3 construct: also called cynomolgus uPAR; cynoPLAUR-His
T3 sequence (Q9GK78 23-303 limits assumed): as the sequence (Q9GK78 23-303 limits assumed) above
Briefly: off-rate screen of scFv clones (kdis), Octet BLI.
For B22, the koff amounted to 0.000206 s⁻¹.
In turn, B23 showed a koff of 0.000384 s⁻¹.
Same read-out and setting: under B24 stands 0.000146 s⁻¹; under B25, 0.000158 s⁻¹.

The target in the next test is T4, human soluble urokinase plasminogen activator receptor (hsuPAR) (human, UniProt Q03405 23-303, limits assumed).
T4 construct: also called human suPAR; rhuPAR-His
Briefly: off-rate screen of scFv clones (kdis), Octet BLI.
T4 sequence (Q03405 23-303 limits assumed): as the sequence (Q03405 23-303 limits assumed) above
Take B22: the koff is 0.00203 s⁻¹.
On the same count and under the same terms, under B23 stands 0.00229 s⁻¹.
B24 showed a koff of 0.00411 s⁻¹.
For the molecule B25, the koff worked out at 0.00368 s⁻¹.
